One molecule from US20230322947A1 (published 2023) can be followed below.

The target of the experiment is T1, cynomolgous CD3 on the cynomolgous T-cell line HSC-F (cynomolgus, UniProt Q95LI8 22-171; Q95LI7 23-181).
T1 chain: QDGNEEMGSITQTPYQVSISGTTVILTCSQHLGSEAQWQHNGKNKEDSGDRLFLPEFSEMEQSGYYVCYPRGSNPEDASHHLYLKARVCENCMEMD
Kind of experiment: FACS binding.

A word on the EC50: it is the concentration at which the effect is half-maximal. Lower therefore signals an effect from little substance.

B1: bsIgG1 huCD3-H3L1×HER2-LFLEDA (bispecific antibody)
heavy 1: EVKLVESGGGLVKPGRSLRLSCAASGFTFNTYAMNWVRQAPGKGLEWVARIRSKYNNYATYYADSVKDRFTISRDDSKSILYLQMNSLKTEDTAMYYCVRHGNFGNSYVSWFAYWGQGTLVTVSS
VL 1: not shown
heavy 2: QVQLVQSGAEVKKPGASVKVSCKASGYTFTNYGISWVRQAPGQGLEWMGWLSAYSGNTIYAQKLQGRVTMTTDTSTTTAYMELRSLRSDDTAVYYCARDRIVVRPDYFDYWGQGTLVTVSS
VL 2: EIVLTQSPATLSLSPGERATLSCRASQSVSSYLAWYQQKPGQAPRLLIYDASNRATGIPARFSGSGSGTDFTLTISSLEPEDFAVYYCQQRSNWPRTFGQGTKVEIK
B1: the EC50 came out at 3.54 µg/mL.
